# Target: FLAG-tagged TgMLC1 C(8,11)S (Toxoplasma gondii)
# Assay: co-IP; anti-FLAG M2 affinity resin, Triton X-100 extract of parasites in FLAG lysis buffer (10 mM imidazole pH 7.4, 300 mM NaCl, 1 mM EGTA, 5 mM MgCl2, 1% TX-100, 2 mM DTT, 2 mM ATP), overnight at 4°C, eluted with FLAG peptide, quantitative Western blotting
row,Substance,"fold increase in the amount recovered, against WT TgMLC1"
1,TgELC1 (Toxoplasma gondii essential light chain 1) (natural protein),2 to 3 fold
2,TgMyoA (Toxoplasma gondii class XIVa myosin heavy chain) (from UniProt O00934 1-831),2 to 3 fold

# Reference: PMC8265671
